Experimental data reported in article PMC4646777 (Science Advances, 2015).
Residue numbers refer to the chain shown, from its start. No end group written: not given here.

Columns and labels:
Test in all cases: AlphaScreen or HTRF
[1] = molecular target: T1, H6-tagged Arabidopsis TPR2 N-terminal domain, TPR2(1–209) (Arabidopsis, UniProt Q9LRZ0 1-209)
T1 sequence (looked up): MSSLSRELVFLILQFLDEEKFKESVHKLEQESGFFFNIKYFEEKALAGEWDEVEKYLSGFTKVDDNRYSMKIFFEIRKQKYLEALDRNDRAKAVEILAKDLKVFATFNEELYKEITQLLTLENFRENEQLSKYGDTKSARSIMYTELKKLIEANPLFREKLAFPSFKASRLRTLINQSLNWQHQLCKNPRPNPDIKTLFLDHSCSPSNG

[2] = molecular target: T2, H6-tagged Arabidopsis TPR3 N-terminal domain, TPR3(1–209) (Arabidopsis, UniProt Q84JM4 1-209)
T2 sequence (looked up): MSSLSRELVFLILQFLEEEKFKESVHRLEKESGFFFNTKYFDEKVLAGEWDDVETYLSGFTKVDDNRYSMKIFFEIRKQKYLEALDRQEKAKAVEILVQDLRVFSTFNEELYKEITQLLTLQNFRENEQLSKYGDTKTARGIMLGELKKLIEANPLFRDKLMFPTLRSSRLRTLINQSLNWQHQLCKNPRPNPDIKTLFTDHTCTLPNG

[3] = molecular target: T3, H6-tagged Arabidopsis TPR4 N-terminal domain, TPR4(1–209) (Arabidopsis, UniProt Q27GK7 1-209)
T3 sequence (looked up): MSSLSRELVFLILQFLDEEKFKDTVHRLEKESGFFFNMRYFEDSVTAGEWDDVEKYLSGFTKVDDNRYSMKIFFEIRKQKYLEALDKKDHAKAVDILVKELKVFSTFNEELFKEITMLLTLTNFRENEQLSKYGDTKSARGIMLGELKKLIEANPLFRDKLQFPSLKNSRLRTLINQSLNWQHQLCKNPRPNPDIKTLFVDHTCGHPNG

[4] = molecular target: T4, H6-tagged OsTPR1 N-terminal domain (TPD), TPR1(1–209) (rice, UniProt Q10NY2 1-209)
T4 sequence (looked up): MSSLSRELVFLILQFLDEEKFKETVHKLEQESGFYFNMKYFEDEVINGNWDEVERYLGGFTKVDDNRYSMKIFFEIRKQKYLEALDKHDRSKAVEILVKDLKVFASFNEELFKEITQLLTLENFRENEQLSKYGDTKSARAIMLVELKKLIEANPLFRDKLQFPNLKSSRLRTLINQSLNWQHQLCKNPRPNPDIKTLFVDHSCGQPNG

[5] = molecular target: T5, H6-tagged Arabidopsis TPR1 N-terminal domain, TPR1(1–209) (Arabidopsis, UniProt Q0WV90 1-209)
T5 sequence (looked up): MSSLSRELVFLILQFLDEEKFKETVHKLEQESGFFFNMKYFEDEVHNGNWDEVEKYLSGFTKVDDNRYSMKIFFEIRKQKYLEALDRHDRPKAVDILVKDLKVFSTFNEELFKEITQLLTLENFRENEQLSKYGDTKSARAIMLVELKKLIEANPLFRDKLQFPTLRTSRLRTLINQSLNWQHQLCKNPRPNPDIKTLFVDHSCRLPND

[6] = molecular target: T6, H6-tagged Arabidopsis TPL N-terminal domain, TPL(1–209) (Arabidopsis, UniProt Q94AI7 1-209)
T6 sequence (looked up): T5 sequence (looked up) with R87K, T168N, R205G, L206P, D209G

[7] = molecular target: T7, H6-tagged OsTPL N-terminal domain (TPD), TPL(1–209) (rice, UniProt Q0J7U6 1-209)
T7 sequence (looked up): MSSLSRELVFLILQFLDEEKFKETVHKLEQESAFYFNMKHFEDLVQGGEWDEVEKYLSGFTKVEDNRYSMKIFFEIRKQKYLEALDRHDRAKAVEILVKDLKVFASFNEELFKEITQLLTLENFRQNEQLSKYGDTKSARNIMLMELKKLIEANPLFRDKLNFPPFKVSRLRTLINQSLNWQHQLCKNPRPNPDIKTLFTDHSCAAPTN

[8] = molecular target: T8, H6-tagged OsTPR2 N-terminal domain (TPD), TPR2(1–210) (rice, UniProt Q5NBT9 1-210)
T8 sequence (looked up): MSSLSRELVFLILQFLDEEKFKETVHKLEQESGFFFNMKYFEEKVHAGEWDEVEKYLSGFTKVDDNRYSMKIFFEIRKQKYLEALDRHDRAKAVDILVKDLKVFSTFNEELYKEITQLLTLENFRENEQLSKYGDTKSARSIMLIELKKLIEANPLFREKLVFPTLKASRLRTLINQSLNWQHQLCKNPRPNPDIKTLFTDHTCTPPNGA

- binding result [1]: binds
- binding result [2]: binds
- binding result [3]: binds
- binding result [4]: binds
- binding result [5]: binds
- binding result [6]: binds
- binding result [7]: binds
- binding result [8]: binds
Binder: DNGLELSLGLSC (also: biotinylated, end not given here) [biotinylated NINJA EAR motif peptide (12 amino acids, wild type)]
